Test results from the RNAGym collection of RNA variant scans (doi:10.7554/elife.90254).

B1: LINE1-mini (parent)
chain: GGCAGAGCUCAACACAGCGUGGCAAAGUGGCUGUGGCUAGACUGCC

Variants of: B1
Assay: self-cleavage, relative activity (ratio to wild type); higher = more cleavage; in vitro, sequencing; the parent is a self-cleaving ribozyme

Variant	self-cleavage
GGCUGAGCUCAACACAGCGUGGCAAAGUGGCCGUGGCUAGACUGCC [A4U U32C]	0.14
AGCAGAGCUCAACACAGCGUGGCAAAGUGGCUGUAGCUAGACUGCC [G1A G35A]	0.2
GACAGAGCUCCACACAGCGUGGCAAAGUGGCUGUGGCUAGACUGCC [G2A A11C]	0.05
GGCAGAGCUCAACACAGCGUGGCAAAGUUGCUGUGGCUAGCCUGCC [G29U A41C]	0.05
GGCAGAGCUCAACACAGCGUGGCAAAGUGGCUGUGGCAAGAAUGCC [U38A C42A]	0.1
GGCAGAGCUCAACACAGCGUGGCAACGUGGCUGUGGCUAGACUGCU [A26C C46U]	1.46
GGCAGAGCUCAACACAGCGUGGCAAAGUGGCUGUGACUAGACUGCG [G36A C46G]	0.34
GGCAGAGCUCUGCACAGCGUGGCAAAGUGGCUGUGGCUAGACUGCC [A11U A12G]	0.03
GGCAGAACUCAACACAGCGUGGCAAAGUGGCUGUGGCUACACUGCC [G7A G40C]	0.1
GGCACAGCGCAACACAGCGUGGCAAAGUGGCUGUGGCUAGACUGCC [G5C U9G]	0.04
GGCAGAGCUCAACACAGCGUGGCAAACUGGCUGCGGCUAGACUGCC [G27C U34C]	0.08
GGCAGAGCUCAACACAGCGUGGCUAAGUGGCUGUGGCUAGAUUGCC [A24U C42U]	0.4
GGCAGAGCUCUACACGGCGUGGCAAAGUGGCUGUGGCUAGACUGCC [A11U A16G]	0.04
GGCAGAGCUCAACACAGCGUAGCAAAGUGGCUGUGGCCAGACUGCC [G21A U38C]	1.12
GGCAGAGCUCAACACAGCGUGGCUAAGUGGCUGUGGCUAGACUGCU [A24U C46U]	1.09
GGCAGAGCUCAACACAGCGUUGGAAAGUGGCUGUGGCUAGACUGCC [G21U C23G]	0.9
GGCAGAGCUCAACUGAGCGUGGCAAAGUGGCUGUGGCUAGACUGCC [A14U C15G]	0.04
GGCAGAGCUCAACACAGCGUGGCAAAAUGGCUGUGGCUAGUCUGCC [G27A A41U]	0.49
GGCAGAGAUCAACGCAGCGUGGCAAAGUGGCUGUGGCUAGACUGCC [C8A A14G]	0.56

Variant	self-cleavage
GGCAGAGCUCAACACAACGUGGCAAAGUGGCCGUGGCUAGACUGCC [G17A U32C]	0.09
GGCAGAGCGCAACACAGCGGGGCAAAGUGGCUGUGGCUAGACUGCC [U9G U20G]	0.06
GGCAGAGCUCAACAAAGCGUGCCAAAGUGGCUGUGGCUAGACUGCC [C15A G22C]	0.06
GGCAGAGCUCAACACAGCGUGGCAUAGUGGCUGUGGCUCGACUGCC [A25U A39C]	0.23
GGCAGAGCUCAACACUGCGCGGCAAAGUGGCUGUGGCUAGACUGCC [A16U U20C]	0.26
GGCAGAGCUCAACACAGCGUGGCAAAGUGGCUUUGGCUAGACUACC [G33U G44A]	0.07
GGCAGAGCUCAACACAGCAUGGCAAAGAGGCUGUGGCUAGACUGCC [G19A U28A]	1.57
GGCAGAGAUCAACACAGCGUGGCAAAGUGGCUGUGGCUCGACUGCC [C8A A39C]	0.32
GGCAGAGCUCAACACUGCGUGGCCAAGUGGCUGUGGCUAGACUGCC [A16U A24C]	0.1
UGCAGAGCUCAACACAGCGUGGAAAAGUGGCUGUGGCUAGACUGCC [G1U C23A]	0.36
GGCAGAGCUCAACACAGCGUGGUAAAGUCGCUGUGGCUAGACUGCC [C23U G29C]	0.52
GGCAGAGCUCUACACAGCGUGGCAAAGUGGAUGUGGCUAGACUGCC [A11U C31A]	0.04
GGCAGAGCGCAACACAGCGUGGCAAAGGGGCUGUGGCUAGACUGCC [U9G U28G]	0.06
GGCAGAGCUCAACACAGCGUGGCAUAGUGGCUGUGGCAAGACUGCC [A25U U38A]	0.6
GGCAGAGCUCAACACAGCGUCGCAAAGUGGCUGUAGCUAGACUGCC [G21C G35A]	0.16
GGCAGAGCUCAACACAGCGUGGCUAAGUGUCUGUGGCUAGACUGCC [A24U G30U]	1.46
GGCAGAGCUCAACCCAGCGUGGCAAAGUGUCUGUGGCUAGACUGCC [A14C G30U]	0.07
GGUAGAGCUCAACACAGCGUGGCAAAGUGGCUGUGGCUAUACUGCC [C3U G40U]	0.12
GGCAGAGCUCAACACAGCGUGGCGAAGUGGCUUUGGCUAGACUGCC [A24G G33U]	0.08

Variant	self-cleavage
GGCCGAGCUCAACACAGCGUGGCAAAGUGGCUGUGGCUAGACCGCC [A4C U43C]	0.08
GGCCGAGUUCAACACAGCGUGGCAAAGUGGCUGUGGCUAGACUGCC [A4C C8U]	0.22
GGCAGAGCUCAACACAGUGUGGCACAGUGGCUGUGGCUAGACUGCC [C18U A25C]	0.86
GGCAGAGCUCAACACAGCGUGUCAGAGUGGCUGUGGCUAGACUGCC [G22U A25G]	1.01
GGCAGAGCUCAACACAGCGUGGCAAAGUGGCUGUGGCUAGACCGAC [U43C C45A]	0.08
GGCAGAGCUCAACUCAGCGUGGCAUAGUGGCUGUGGCUAGACUGCC [A14U A25U]	0.32
GGCAGAGCUCAACACAGAGUGGCAAAGUGGCUGUGGCGAGACUGCC [C18A U38G]	0.02
GGCAGAGCUCAGCACAGCGUGGCUAAGUGGCUGUGGCUAGACUGCC [A12G A24U]	0.03
GGCAGAGCUCAACACAGCGUGGCAAACUGGCUGUGGCUAGACUACC [G27C G44A]	0.47
GGCAGAGCGCAACACAGCGUGGCGAAGUGGCUGUGGCUAGACUGCC [U9G A24G]	0.14
GGCAGAGCUCAACACGGCGUGGCAAAUUGGCUGUGGCUAGACUGCC [A16G G27U]	0.68
GGCAGAGCUCAACACAGCGUGGUAAAGUGGCUGUGGCUAGAGUGCC [C23U C42G]	0.09
GGCAGAGCUCAACACAGCGUGGCAACGUGGCUGUAGCUAGACUGCC [A26C G35A]	0.18
GGCAGAGCUGAACACAGCGUGGCAAAGUGGCUGUGGCUAGACUGCG [C10G C46G]	0.05
GGCAGAGCUCAACACAGCGUGGUAAAAUGGCUGUGGCUAGACUGCC [C23U G27A]	1.07
GGCAGAGCGCAACACAGCGUGGCAACGUGGCUGUGGCUAGACUGCC [U9G A26C]	0.21
GGCAGAGCUCAACACAGCGUGGCAAAGUGGCUGUGGCUUGACUGGC [A39U C45G]	0.24
GGCAGUGCUCAACACAGCGUGGCAAAGUGGCUGUGGCUAGACCGCC [A6U U43C]	0.51
